Consider 4 molecules from publication PMC11997057, “PIN1-SUMO2/3 motif suppresses excessive RNF168 chromatin accumulation and ubiquitin signaling to promote IR resistance” (Nature Communications, 2025).

Non-standard residues stand in square brackets, D forms with d. No end group written: not given here. pT = C[C@@H](OP(=O)(O)O)[C@H](N)C(=O)O

Assay [1] has as its target PIN1 WW domain (UniProt Q13526). As to the kind of experiment: GST pull-down from cell lysate. The conditions noted are these: reference: myc-RNF168 wild type; sites T208.
In assay [2] the target is PIN1 (UniProt Q13526). As to the kind of experiment: native mass spectrometry, 1:5 protein:peptide. As to conditions: reference: unphosphorylated peptide; sites T208.
The target in assay [3] is T1, full-length PIN1 (recombinant, tag cleaved) (UniProt Q13526 1-163).
T1 construct: peptidyl-prolyl isomerase PIN1, full length; also called recombinant PIN1; tag-cleaved PIN1; source: E. coli Rosetta 2(DE3) pLysS, auto-induction, purified (IMAC), tag cleaved with TEV protease; not shown: His6, N-terminal, cleaved
As to the kind of experiment: native MS; PIN1 2.5 uM and peptide 12.5 uM (1:5 molar ratio) incubated on ice in 100 mM ammonium acetate pH 6.8; nanoelectrospray, positive mode. As to conditions: both partners purified.

On to RNF168 (from UniProt Q8IYW5) T208A, for which the “binding against the reference” value in assay [1] was “weaker”.
For the molecule “RNF168 204-210 (from UniProt Q8IYW5) pT208 peptide”, the “binding against the reference” value in assay [2] was “stronger”.

B1: phosphorylated RNF168 peptide S204-K210, SDPV(pT)PK (peptide)
peptide: SDPV[pT]PK
notes: end groups not known; also called phospho-RNF168 peptide; pT208-RNF168 peptide; source: synthetic peptide, bought: GenScript Biotech
As to B1, the binding result in assay [3] is “binds”.

B2: unphosphorylated RNF168 peptide S204-K210 (peptide)
peptide: SDPVTPK
notes: end groups not known; also called non-phosphorylated peptide of the T208 motif; source: synthetic peptide, bought: GenScript Biotech
Turning to B2, in assay [3], the binding result is reported as “binds”.
